From article PMC9071441

Target: mNeonGreen-tagged T-bet DNA binding domain (aa 135-326) Q160A (mouse) (UniProt Q9JKD8)
Test: FRET or BRET; flow-cytometric FRET in HEK293T cells co-transfected with 730 ng of each vector for mTagBFP- and mNeonGreen-tagged proteins; read 32 hours after transfection; 405 nm laser line, 530/30 bandpass filter; DFRET efficiency

mNeonGreen-tagged T-bet DNA binding domain (aa 135-326) Q160A (mouse), sequence (Q9JKD8 135-326, stated change not applied): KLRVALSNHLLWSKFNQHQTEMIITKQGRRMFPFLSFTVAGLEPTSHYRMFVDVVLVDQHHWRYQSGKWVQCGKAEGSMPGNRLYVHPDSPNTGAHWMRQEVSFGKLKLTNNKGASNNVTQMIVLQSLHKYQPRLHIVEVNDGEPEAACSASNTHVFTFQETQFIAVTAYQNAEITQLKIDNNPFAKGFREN
mTagBFP-tagged GATA3 DNA binding domain (aa 259-369), sequence (P23772 259-369): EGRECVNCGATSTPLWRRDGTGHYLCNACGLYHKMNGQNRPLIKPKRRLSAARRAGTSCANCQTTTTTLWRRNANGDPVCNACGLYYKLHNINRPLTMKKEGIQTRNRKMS

With “mTagBFP-tagged GATA3 DNA binding domain (aa 259-369) (from UniProt P23772 259-369) (domain or fragment)” the reduction of the FRET interaction signal against WT T-bet DBD was 50%.
